Results: US20190032049

Columns and labels:
[1] = system: tetR:DNMT3A (tetR:D3A) (Escherichia coli); assay: cell_activity; conditions: no doxycycline, stable expression, slower kinetics
[2] = system: tetR:KRAB (tetR:K) (Escherichia coli); assay: cell_activity; conditions: no doxycycline, stable expression, AAVS1/TetO7 K562

TetO7 (seven tandem TetO repeats)
activity (% eGFP-negative cells) [1]: 100 | activity (% eGFP-negative cells) [2]: 100
